Laboratory results taken from patent US20180051081A1 (published 2018).

T1: pig CD47 (pig, UniProt Q9GKE8 19-303)
T1 construct: whole, on cells; also called CD47 on porcine RBCs
T1 sequence (looked up): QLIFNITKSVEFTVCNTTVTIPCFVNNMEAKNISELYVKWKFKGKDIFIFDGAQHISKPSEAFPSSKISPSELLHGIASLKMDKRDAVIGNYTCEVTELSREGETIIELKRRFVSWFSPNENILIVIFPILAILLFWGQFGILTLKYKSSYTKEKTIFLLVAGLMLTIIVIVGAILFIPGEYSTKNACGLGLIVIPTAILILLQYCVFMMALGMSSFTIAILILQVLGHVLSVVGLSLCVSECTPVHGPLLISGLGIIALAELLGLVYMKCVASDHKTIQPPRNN

T2: dog CD47 (dog, UniProt A0A8I3PM61 19-310)
T2 construct: also called CD47 on dog RBCs
T2 sequence: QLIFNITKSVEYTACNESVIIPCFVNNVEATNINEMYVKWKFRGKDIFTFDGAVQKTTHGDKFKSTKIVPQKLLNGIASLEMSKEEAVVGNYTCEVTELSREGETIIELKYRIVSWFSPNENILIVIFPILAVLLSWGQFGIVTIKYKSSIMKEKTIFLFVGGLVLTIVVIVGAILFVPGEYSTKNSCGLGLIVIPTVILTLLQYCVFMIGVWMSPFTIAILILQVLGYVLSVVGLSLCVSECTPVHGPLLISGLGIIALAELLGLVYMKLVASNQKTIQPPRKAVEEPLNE

T3: mouse CD47 (mouse, UniProt Q61735 19-303)
T3 construct: whole, on cells; also called CD47 on mouse RBCs; CD47 on 4T1 cells
T3 sequence (looked up): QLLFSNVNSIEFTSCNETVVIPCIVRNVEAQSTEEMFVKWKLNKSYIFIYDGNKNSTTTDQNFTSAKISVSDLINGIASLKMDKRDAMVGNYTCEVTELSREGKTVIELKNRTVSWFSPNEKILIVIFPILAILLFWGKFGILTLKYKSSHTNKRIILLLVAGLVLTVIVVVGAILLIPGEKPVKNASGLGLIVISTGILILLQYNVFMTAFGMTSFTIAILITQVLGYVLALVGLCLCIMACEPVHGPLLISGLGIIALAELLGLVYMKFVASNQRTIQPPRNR

T4: rat CD47 (rat, UniProt P97829 19-303)
T4 construct: whole, on cells; also called CD47 on rat RBCs
T4 sequence (looked up): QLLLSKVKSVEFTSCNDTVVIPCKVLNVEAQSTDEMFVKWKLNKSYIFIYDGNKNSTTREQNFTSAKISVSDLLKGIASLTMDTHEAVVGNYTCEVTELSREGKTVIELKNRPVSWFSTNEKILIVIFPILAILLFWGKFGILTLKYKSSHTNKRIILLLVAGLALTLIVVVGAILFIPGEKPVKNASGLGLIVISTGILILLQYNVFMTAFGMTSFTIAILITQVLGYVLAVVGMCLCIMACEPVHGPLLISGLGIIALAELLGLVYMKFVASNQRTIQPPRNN


How the values were obtained:
pig CD47 = biological target: T1, pig CD47; test: FACS, pig RBCs, supernatant 10 ng/ml
Experimental: (§1) RBCs are incubated for 60 minutes on ice with tissue culture supernatants containing the secreted humanized antibodies at a concentration of 10 ng/ml in a solution of phosphate buffered saline, pH 7.2, 2.5 mM EDTA (PBS+E), or with various concentrations of purified antibodies. Cells are then washed with cold PBS+E, and incubated for an additional hour on ice with FITC labeled donkey anti-human antibody (Jackson Immuno Research Labs, West Grove, Pa.; Catalogue #709-096-149) in PBS+E. Cells are then washed with PBS+E, and antibody binding is analyzed using a BD FACSAria Cell Sorter (Becton Dickinson) or a C6 Accuri Flow Cytometer (Becton Dickinson). Antibody binding is quantitated by comparison of mean fluorescence values relative to that of chimeric antibody >VxP037-01LC (SEQ ID NO:7))/>VxP037-01HC (SEQ ID NO:57). The mean fluorescence value for each antibody is divided by the mean fluorescence value for the chimeric antibody.

human CD47 = biological target: T5, human CD47 (human, UniProt Q08722 19-323); test: FACS, human RBCs, supernatant 10 ng/ml
T5 construct: whole, on cells; also called CD47 on human RBCs; CD47 on OV10 cells
Experimental: as §1

dog CD47 = biological target: T2, dog CD47; test: FACS, dog RBCs, supernatant 10 ng/ml
Experimental: as §1

mouse CD47 = biological target: T3, mouse CD47; test: FACS, mouse RBCs, supernatant 10 ng/ml
Experimental: as §1

rat CD47 = biological target: T4, rat CD47; test: FACS, rat RBCs, supernatant 10 ng/ml
Experimental: as §1

T5 sequence (Q08722 19-323): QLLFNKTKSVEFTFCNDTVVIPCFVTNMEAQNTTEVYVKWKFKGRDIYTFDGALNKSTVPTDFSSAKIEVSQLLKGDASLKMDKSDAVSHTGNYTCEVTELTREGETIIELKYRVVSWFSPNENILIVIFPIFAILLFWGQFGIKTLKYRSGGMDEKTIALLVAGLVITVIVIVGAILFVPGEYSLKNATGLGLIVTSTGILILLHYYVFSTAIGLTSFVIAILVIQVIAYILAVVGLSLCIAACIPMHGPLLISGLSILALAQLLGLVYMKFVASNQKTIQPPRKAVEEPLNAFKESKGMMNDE

Binder	mean fluorescence relative to chimera (pig CD47)	mean fluorescence relative to chimera (human CD47)	mean fluorescence relative to chimera (dog CD47)	mean fluorescence relative to chimera (mouse CD47)	mean fluorescence relative to chimera (rat CD47)
Clone 2 (pVxK7b-037-hum02-LC / pVxK7b-037-hum02-HC) (antibody, human IgG1, kappa, V domains shown) VH: QVQLQESGPGLVKPSQTLSLTCTVSGYTFTNYYVFWVRQARGQRLEWIGDINPVNGDTNFNEKFKNRVTISADKSISTAYLQWSSLKASDTAMYYCARGGYTMDYWGQGTLVTVSS VL: DVVMTQSPLSLPVTLGQPASISCRSSQSLVHSNGNTYLHWYQQKPGQAPRLLIYKVSYRFSGVPSRFSGSGSGTEFTLTISSLQPDDFATYYCSQNTHVPRTFGQGTKVEIKR	1.2	1	1	1.2	2.6
Clone 1 (pVxK7b-037-hum01-LC / pVxK7b-037-hum01-HC) (antibody, human IgG1, kappa, also called Cl 1) light: DIVMTQTPLSLPVTPGEPASISCRSSQSLVHSNGNTYLHWYQQKPGKAPKLLIYKVSYRFSGVPDRFSGSGSGTDFTLKISRVEAEDVGVYYCSQNTHVPRTFGQGTKVEIKRTVAAPSVFIFPPSDEQLKSGTASVVCLLNNFYPREAKVQWKVDNALQSGNSQESVTEQDSKDSTYSLSSTLTLSKADYEKHKVYACEVTHQGLSSPVTKSFNRGEC heavy: not shown	1.3	1.1	1	1.7	2.7
Clone 19 (pVxK7b-037-hum19-LC / pVxK7b-037-hum19-HC) (antibody, human IgG1, kappa) light: DVVMTQSPLSLPVTLGQPASISCRSSQSLVHSNGNTYLHWYQQKPGKAPKLLIYKVSYRFSGVPDRFSGSGSGTDFTLKISRVEAEDVGVYYCSQNTHVPRTFGQGTKVEIKRTVAAPSVFIFPPSDEQLKSGTASVVCLLNNFYPREAKVQWKVDNALQSGNSQESVTEQDSKDSTYSLSSTLTLSKADYEKHKVYACEVTHQGLSSPVTKSFNRGEC heavy: not shown	1.3	0.7	1.2	1	2.6
Clone 3 (pVxK7b-037-hum03-LC / pVxK7b-037-hum03-HC) (antibody, human IgG1, kappa) light: DVVMTQSPLSLPVTLGQPASISCRSSQSLVHSNGNTYLHWYQQKPGKAPKLLIYKVSYRFSGVPDRFSGSGSGTDFTLKISRVEAEDVGVYYCSQNTHVPRTFGQGTKVEIKRTVAAPSVFIFPPSDEQLKSGTASVVCLLNNFYPREAKVQWKVDNALQSGNSQESVTEQDSKDSTYSLSSTLTLSKADYEKHKVYACEVTHQGLSSPVTKSFNRGEC heavy: not shown	0.9	0.7	0.9	0.9	1.7
Clone 15 (pVxK7b-037-hum15-LC / pVxK7b-037-hum15-HC) (antibody, human IgG1, kappa, V domains shown) VH: QVQLQESGPGLVKPSQTLSLTCTVSGYTFTNYYVFWVRQARGQRLEWIGDINPVNGDTNFNEKFKNRLTISKDTSKNQVVLTMTNMDPVDTATYYCARGGYTMDYWGQGTLVTVSS VL: AIQLTQSPSSLSASVGDRVTITCRSSQSLVHSNGNTYLHWYQQKPGQAPRLLIYKVSYRFSGVPSRFSGSGSGTEFTLTISSLQPDDFATYYCSQNTHVPRTFGQGTKVEIKR	1.2	1	1.1	1.3	2.4
Clone 6 (pVxK7b-037-hum06-LC / pVxK7b-037-hum06-HC) (antibody, human IgG1, kappa, V domains shown) VH: QVQLQESGPGLVKPSQTLSLTCTVSGYTFTNYYVFWVRQARGQRLEWIGDINPVNGDTNFNEKFKNRLTISKDTSKNQVVLTMTNMDPVDTATYYCARGGYTMDYWGQGTLVTVSS VL: DIQMTQSPSSLSASVGDRVTITCRSSQSLVHSNGNTYLHWYLQKPGQSPQLLIYKVSYRFSGIPARFSGSGSGTEFTLTISSLQSEDFAVYYCSQNTHVPRTFGQGTKVEIKR	1.1	0.9	1.1	1.2	2.1

The remaining lines, values ahead:

mean fluorescence relative to chimera (pig CD47)	mean fluorescence relative to chimera (human CD47)	mean fluorescence relative to chimera (dog CD47)	mean fluorescence relative to chimera (mouse CD47)	mean fluorescence relative to chimera (rat CD47)	Binder
1	1	1	1	1	chimeric antibody VxP037-01LC-Pro/VxP037-01HC-Pro (antibody, human IgG1, kappa, V domains shown, also called Chimera; VxP037-01LC/VxP037-01HC) VH: EVQLQQFGAELVKPGASMKLSCKASGYTFTNYYVFWVKQRPGQGLEWIGDINPVNGDTNFNEKFKNKATLTVDKSSTTTYLQLSSLTSEDSAVYYCTRGGYTMDYWGQGTLVTVSS VL: DVVMTQTPLSLSVSLGDQASISCRSSQSLVHSNGNTYLHWYLQKPGQSPKLLIYKVSYRFSGVPDRFSGSGSGTDFTLKISRVEAEDLGVYFCSQNTHVPRTFGQGTKVEIKR
1.7	1.3	1.1	1.5	1.9	Clone 20 (pVxK7b-037-hum20-LC / pVxK7b-037-hum20-HC) (antibody, human IgG1, kappa) light: DIVMTQTPLSLPVTPGEPASISCRSSQSLVHSNGNTYLHWYLQKPGQSPQLLIYKVSYRFSGVPDRFSGSGSGTDFTLKISRVEAEDVGVYYCSQNTHVPRTFGQGTKVEIKRTVAAPSVFIFPPSDEQLKSGTASVVCLLNNFYPREAKVQWKVDNALQSGNSQESVTEQDSKDSTYSLSSTLTLSKADYEKHKVYACEVTHQGLSSPVTKSFNRGEC heavy: not shown
1.4	1.2	1	1.3	3.1	Clone 13 (pVxK7b-037-hum13-LC / pVxK7b-037-hum13-HC) (antibody, human IgG1, kappa, also called Cl 13) light: DIVMTQTPLSLPVTPGEPASISCRSSQSLVHSNGNTYLHWYQQKPGKAPKLLIYKVSYRFSGVPDRFSGSGSGTDFTLKISRVEAEDVGVYYCSQNTHVPRTFGQGTKVEIKRTVAAPSVFIFPPSDEQLKSGTASVVCLLNNFYPREAKVQWKVDNALQSGNSQESVTEQDSKDSTYSLSSTLTLSKADYEKHKVYACEVTHQGLSSPVTKSFNRGEC heavy: not shown
1.4	1.1	1.3	1.5	3.2	Clone 14 (pVxK7b-037-hum14-LC / pVxK7b-037-hum14-HC) (antibody, human IgG1, kappa) light: DVVMTQSPLSLPVTLGQPASISCRSSQSLVHSNGNTYLHWYQQKPGKAPKLLIYKVSYRFSGVPDRFSGSGSGTDFTLKISRVEAEDVGVYYCSQNTHVPRTFGQGTKVEIKRTVAAPSVFIFPPSDEQLKSGTASVVCLLNNFYPREAKVQWKVDNALQSGNSQESVTEQDSKDSTYSLSSTLTLSKADYEKHKVYACEVTHQGLSSPVTKSFNRGEC heavy: not shown
1.4	1.2	1.1	1.2	2.8	Clone 21 (pVxK7b-037-hum21-LC / pVxK7b-037-hum21-HC) (antibody, human IgG1, kappa, V domains shown) VH: QVQLQESGPGLVKPSQTLSLTCTVSGYTFTNYYVFWVRQARGQRLEWIGDINPVNGDTNFNEKFKNRLTISKDTSKNQVVLTMTNMDPVDTATYYCARGGYTMDYWGQGTLVTVSS VL: AIQLTQSPSSLSASVGDRVTITCRSSQSLVHSNGNTYLHWYQQKPGQAPRLLIYKVSYRFSGVPDRFSGSGSGTDFTLKISRVEAEDVGVYYCSQNTHVPRTFGQGTKVEIKR
